Starred links: 1 amine or outer side, 2 acyl side, 3 side chain; linkers in the order of their positions; H or OH if unused. Positions of bridges follow the written chain, without caps; N, C: chain ends. Non-standard residues stand in square brackets, D forms with d. Primed or numbered codes have the meaning given here. PyrS2″ = (S)-3-amino-1-((pent-4-en-1-yloxy)carbonyl)pyrrolidine-3-carboxylic acid (stapling residue), C=CCCCOC(=O)N1CC[C@@](N[*:1])(C(=O)[*:2])C1; B5(4) = 2,2-bis(4-pentenyl)glycine = 2-amino-2-(pent-4-en-1-yl)hept-6-enoic acid (stitching residue), C=CCCCC(CCCC=C)(N[*:1])C(=O)[*:2]; B5(5) = 2,2-bis(4-pentenyl)glycine, 2-amino-2-(pent-4-en-1-yl)hept-6-enoic acid (stitching residue), C=CCCCC(CCCC=C)(N[*:1])C(=O)[*:2]; 5F3Me3COOHF = (S)-3-(2-amino-2-carboxyethyl)-5-(trifluoromethyl)benzoic acid, O=C([C@H](Cc1cc(C(=O)[*:3])cc(C(F)(F)F)c1)N[*:1])[*:2]; TfeGA = (S)-2-amino-3-((carboxymethyl)(2,2,2-trifluoroethyl)amino)propanoic acid, O=C([C@H](CN(CC(=O)[*:3])CC(F)(F)F)N[*:1])[*:2]; PyrS2 = (S)-3-amino-1-((pent-4-en-1-yloxy)carbonyl)pyrrolidine-3-carboxylic acid, C=CCCCOC(=O)N1CC[C@@](N[*:1])(C(=O)[*:2])C1; B5(12) = 2-amino-2-(pent-4-en-1-yl)hept-6-enoic acid (two olefin side chains), C=CCCCC(CCCC=C)(N[*:1])C(=O)[*:2]; 4F3COOHF = (S)-5-(2-amino-2-carboxyethyl)-2-fluorobenzoic acid, O=C([C@H](Cc1ccc(F)c(C(=O)[*:3])c1)N[*:1])[*:2]; PyrS2(5) = (S)-3-amino-1-((alkenyloxy)carbonyl)pyrrolidine-3-carboxylic acid, carbamate stapling residue; B5(3) = 2,2-bis(4-pentenyl)glycine (stitching residue), C=CCCCC(CCCC=C)(N[*:1])C(=O)[*:2]; B5 = 2-amino-2-(pent-4-en-1-yl)hept-6-enoic acid, C=CCCCC(CCCC=C)(N[*:1])C(=O)[*:2]; Phe(3-COOH) = N[C@@H](Cc1cccc(C(=O)O)c1)C(=O)O; 2F3MeF = Cc1cccc(C[C@H](N[*:1])C(=O)[*:2])c1F; Phe(4-Cl) = N[C@@H](Cc1ccc(Cl)cc1)C(=O)O; Phe(2-Cl) = N[C@@H](Cc1ccccc1Cl)C(=O)O; Bta = N[C@@H](Cc1csc2ccccc12)C(=O)O; αAllylPro = C=CC[C@@]1(C(=O)O)CCCN1; tBuAla = CC(C)(C)C[C@H](N)C(=O)O; 3Thi = N[C@@H](Cc1ccsc1)C(=O)O; 34ClF = not defined here; Nle = CCCC[C@H](N)C(=O)O; Aib = CC(C)(N)C(=O)O

The labels stand for the following.
B1: I-1692 (peptide)
peptide: Ac-[αAllylPro]D[tBuAla][B5]D[TfeGA][Nle]AFT[PyrS2][Phe(2-Cl)][Bta]Q-NH2
modifications: staple 1-4, 4-11
B2: I-1687 (peptide)
peptide: Ac-[αAllylPro]D[tBuAla][B5(4)]D[Phe(3-COOH)]AGFL[PyrS2(5)][Phe(2-Cl)][Bta]Q-NH2
modifications: staple 1-4, 4-11
B3: I-1688 (peptide)
peptide: Ac-[αAllylPro]D[tBuAla][B5]D[Phe(3-COOH)][Nle]GFL[PyrS2][Phe(2-Cl)][Bta]Q-NH2
modifications: staple 1-4, 4-11
B4: I-1693 (peptide)
peptide: Ac-[αAllylPro]D[tBuAla][B5]D[TfeGA][Aib]AFT[PyrS2][Phe(2-Cl)][Bta]Q-NH2
modifications: staple 1-4, 4-11
B5: I-1689 (peptide)
peptide: Ac-[αAllylPro]D[tBuAla][B5]D[Phe(3-COOH)][Aib]GFL[PyrS2][Phe(2-Cl)][Bta]Q-NH2
modifications: staple 1-4, 4-11
B6: I-1694 (peptide)
peptide: Ac-[αAllylPro]D[tBuAla][B5]D[TfeGA]AGFT[PyrS2][Phe(2-Cl)][Bta]Q-NH2
modifications: staple 1-4, 4-11
B7: I-1695 (peptide)
peptide: Ac-[αAllylPro]D[tBuAla][B5]D[TfeGA][Nle]GFT[PyrS2][Phe(2-Cl)][Bta]Q-NH2
modifications: staple 1-4, 4-11
B8: I-1696 (peptide)
peptide: Ac-[αAllylPro]D[tBuAla][B5]D[TfeGA][Aib]GFT[PyrS2][Phe(2-Cl)][Bta]Q-NH2
modifications: staple 1-4, 4-11
B9: I-2216 (peptide)
peptide: Ac-[αAllylPro]D[tBuAla][B5(3)]D[Phe(3-COOH)]AAFL[PyrS2″][3Thi][34ClF]Q-NH2
modifications: staple 1-4, 4-11; reading uncertain
B10: I-2219 (peptide)
peptide: Ac-[αAllylPro]D[tBuAla][B5(3)]D[Phe(3-COOH)]QAFL[PyrS2″][2F3MeF][34ClF]A-NH2
modifications: staple 1-4, 4-11; reading uncertain
B11: I-2211 (peptide)
peptide: Ac-[αAllylPro]D[tBuAla][B5(5)]D[5F3Me3COOHF]QAFL[PyrS2][3Thi][Bta]A-NH2
modifications: staple 1-4, 4-11
B12: I-2206 (peptide)
peptide: Ac-[αAllylPro]D[tBuAla][B5(5)]D[4F3COOHF]QAFL[PyrS2][3Thi][Bta]A-NH2
modifications: staple 1-4, 4-11
B13: I-2220 (peptide)
peptide: Ac-[αAllylPro]D[tBuAla][B5(3)]D[Phe(3-COOH)]AAFL[PyrS2″][3Thi][Phe(4-Cl)]Q-NH2
modifications: staple 1-4, 4-11
B14: I-2218 (peptide)
peptide: Ac-[αAllylPro]D[tBuAla][B5(3)]D[Phe(3-COOH)]AAFL[PyrS2″][2F3MeF][34ClF]S-NH2
modifications: staple 1-4, 4-11; reading uncertain
B15: I-860 (peptide)
peptide: Ac-[αAllylPro]D[tBuAla][B5(12)]DTAAFN[PyrS2][3Thi][Bta]-NH2
modifications: staple 1-4, 4-11; also: later eluting staple isomer

Bcat-Halo (beta-catenin HaloTag construct expressed in HEK293 cells), sequence (P35222 whole entry): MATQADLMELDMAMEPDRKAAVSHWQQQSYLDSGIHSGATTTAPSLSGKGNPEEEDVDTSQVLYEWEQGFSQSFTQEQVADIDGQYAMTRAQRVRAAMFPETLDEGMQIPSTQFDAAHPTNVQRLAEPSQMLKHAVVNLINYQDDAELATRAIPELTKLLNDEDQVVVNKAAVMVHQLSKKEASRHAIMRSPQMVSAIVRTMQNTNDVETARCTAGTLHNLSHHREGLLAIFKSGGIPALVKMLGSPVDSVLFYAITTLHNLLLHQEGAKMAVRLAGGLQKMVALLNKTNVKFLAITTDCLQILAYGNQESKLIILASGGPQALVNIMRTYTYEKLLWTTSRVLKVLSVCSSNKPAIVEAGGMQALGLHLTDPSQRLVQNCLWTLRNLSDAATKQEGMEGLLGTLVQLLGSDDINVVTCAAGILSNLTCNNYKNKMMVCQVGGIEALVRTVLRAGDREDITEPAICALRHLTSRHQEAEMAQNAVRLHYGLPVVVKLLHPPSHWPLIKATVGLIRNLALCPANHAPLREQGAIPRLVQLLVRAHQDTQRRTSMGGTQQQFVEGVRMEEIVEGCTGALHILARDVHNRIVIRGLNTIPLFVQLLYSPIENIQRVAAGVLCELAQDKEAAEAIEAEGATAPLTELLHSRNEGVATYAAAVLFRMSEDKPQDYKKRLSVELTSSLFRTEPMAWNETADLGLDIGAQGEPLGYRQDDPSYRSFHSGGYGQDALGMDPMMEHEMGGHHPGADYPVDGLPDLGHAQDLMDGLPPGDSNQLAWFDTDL

The first assay has as its target Bcat-Halo (beta-catenin HaloTag construct expressed in HEK293 cells) (UniProt P35222). Briefly: NanoBRET target engagement in HEK293 cells, absolute IC50; competitor TCF4-Luc. A general note: Bioluminescence resonance energy transfer reports proximity on the nanometre scale.
The term IC50 denotes the concentration needed to halve the response being measured. A high value points to weaker potency. B1 displayed an IC50 of 10400 nM.

B2 gave a concentration for half-maximal inhibition (IC50) of 18600 nM. Compared with the last molecule, the IC50 is about 1.8-fold higher.

For the molecule B3, the IC50 was 21500 nM.

Molecule B4 gave an IC50 of 4600 nM.

For the molecule B5, the half-maximal inhibitory concentration (IC50) turned out to be 12500 nM.

Turning to B6, the IC50 was 43600 nM. This IC50 lies about 3.5-fold higher than the previous one.

The molecule B7 came in with an IC50 above 20000 nM.

Molecule B8 registered a half-maximal inhibitory concentration (IC50) of 35500 nM.

The target of a further assay is Bcat-Halo (UniProt P35222). Nature of the assay: NanoBRET Abs IC50, Bcat-Halo/TCF4-Luc in HEK293 cells.
Bcat-Halo, sequence (P35222 whole entry): as above
Turning to B9, the IC50 came out at 3400 nM. This lies in the single-digit micromolar range.

The molecule B10 showed an IC50 of 2700 nM. The IC50 values of the last two molecules are within 1.5-fold of each other.

B11 showed an IC50 of 12900 nM. This IC50 is about 4.8-fold higher than that of the molecule before.

B12 yielded an IC50 of 7100 nM.

B13 had an IC50 of 16300 nM.

Molecule B14 displayed an IC50 of 5100 nM.

The target in a further assay is full-length beta-Catenin (Uniprot ID P35222) (Homo sapiens (Human)) (UniProt P35222). Briefly: fluorescence polarization competition; competitor 5FAM-TCF4 10-53. A general note: In fluorescence polarisation assays a small probe gives low polarisation when free and higher when bound to something large.
Target sequence in this assay (P35222 whole entry, one chain of several): as the sequence (P35222 whole entry) above
B1 showed an IC50 of 17 nM.

Consider B2, for which the IC50 was found to be 42 nM.

As to B3, the IC50 came out at 59 nM.

On to B4, for which the IC50 was 10 nM.

B5 came in with an IC50 of 25.5 nM.

In turn, B6 yielded an IC50 of 57 nM.

As to B7, the IC50 was determined as 93 nM.

Consider B8, for which the half-maximal inhibitory concentration (IC50) was determined as 32 nM.

The next assay shares this target. Nature of the assay: fluorescence polarization competition; 10 nM full-length beta-catenin with 10 nM 5FAM-TCF4 (residues 10-53) probe as competitor.
Target sequence in this assay (P35222 2-781 limits assumed): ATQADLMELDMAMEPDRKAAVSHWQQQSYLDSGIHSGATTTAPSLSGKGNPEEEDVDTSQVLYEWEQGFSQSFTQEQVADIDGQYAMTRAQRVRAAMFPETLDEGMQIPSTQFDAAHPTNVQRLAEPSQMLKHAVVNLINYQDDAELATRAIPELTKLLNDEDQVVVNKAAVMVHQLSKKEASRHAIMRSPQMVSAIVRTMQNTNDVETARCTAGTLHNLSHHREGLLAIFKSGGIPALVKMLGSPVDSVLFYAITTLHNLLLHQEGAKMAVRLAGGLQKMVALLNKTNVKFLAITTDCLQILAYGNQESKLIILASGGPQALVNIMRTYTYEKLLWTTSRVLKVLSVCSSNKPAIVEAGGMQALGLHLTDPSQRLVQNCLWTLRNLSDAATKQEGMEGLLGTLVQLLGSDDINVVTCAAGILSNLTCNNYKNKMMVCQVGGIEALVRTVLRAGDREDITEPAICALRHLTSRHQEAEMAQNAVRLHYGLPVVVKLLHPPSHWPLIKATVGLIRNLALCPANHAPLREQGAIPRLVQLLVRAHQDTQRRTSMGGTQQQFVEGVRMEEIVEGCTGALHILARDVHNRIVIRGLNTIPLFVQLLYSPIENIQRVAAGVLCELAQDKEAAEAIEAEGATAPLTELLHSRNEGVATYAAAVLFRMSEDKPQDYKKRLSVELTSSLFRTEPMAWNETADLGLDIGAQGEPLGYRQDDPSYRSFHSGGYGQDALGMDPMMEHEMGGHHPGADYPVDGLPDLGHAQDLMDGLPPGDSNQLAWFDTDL
One may read the EC50 as the midpoint of the concentration-response curve. Low readings indicate an effect from little substance, high ones a need for much substance. With B15, the EC50 was 61 nM. This lies in the double-digit nanomolar range.

For a further assay the target is unchanged. Briefly: fluorescence polarization competition against 5FAM-TCF4 10-53.
Target sequence in this assay (P35222 whole entry, one chain of several): as the sequence (P35222 whole entry) above
The molecule B9 gave an IC50 of 7 nM.

B10 showed a 50% inhibitory concentration (IC50) of 21 nM.

As to B11, the IC50 turned out to be 23 nM.

The molecule B12 yielded an IC50 of 7 nM.

In turn, B13 displayed an IC50 of 12 nM. This IC50 lies about 1.7-fold higher than the previous one.

B14 showed an IC50 of 34 nM.

For a further assay the target is unchanged. Nature of the assay: FP competition vs 5FAM-TCF4(10-53), full-length beta-catenin.
Target sequence in this assay (P35222 2-781 limits assumed): as the sequence (P35222 2-781 limits assumed) above
As for B15, the IC50 stood at 61 nM.

Values taken from patent US20240116985A1, “STAPLED PEPTIDES AND METHODS THEREOF” (priority 2020, published 2024).
